# T1: 19-mer (SEQ ID NO:11) PRCGNPDVANYNFFPRKPK
# T1 chain: PRCGNPDVANYNFFPRKPK
# Target: T1, 19-mer (SEQ ID NO:11) …
protein,measurement,value
Proenzyme pro-MMP-9 (protein) APRQRQSTLVLFPGDLRTNLTDRQLAEEYLYRYGYTRVAEMRGESKSLGPALLLLQKQLSLPETGELDSATLKAMRTPRCGVPDLGRFQTFEGDLKWHHHNITYWIQNYSEDLPRAVIDDAFARAFALWSAVTPLTFTRVYSRDADIVIQFGVAEHGDGYPFDGKDGLLAHAFPPGPGIQGDAHFDDDELWSLGKGVVVPTRFGNADGAACHFPFIFEGRSYSACTTDGRSDGLPWCSTTANYDTDDRFGFCPSERLYTQDGNADGKPCQFPFIFQGQSYSACTTDGRSDGYRWCATTANYDRDKLFGFCPTRADSTVMGGNSAGELCVFPFTFLGKEYSTCTSEGRGDGRLWCATTSNFDSDKKWGFCPDQGYSLFLVAAHEFGHALGLDHSSVPEALMYPMYRFTEGPPLHKDDVNGIRHLYGPRPEPEPRPPTTTTPQPTAPPTVCPTGPPTVHPSERPTAGPTGPPSAGPTGPPTAGPSTATTVPLSPVDDACNVNIFDAIAEIGNQLYLFKDGKYWRFSEGRGSRPQGPFLIADKWPALPRKLDSVFEERLSKKLFFFSGRQVWVYTGASVLGPRRLDKLGLGADVAQVTGALRSGRGKMLLFSGRRLWRFDVKAQMVDPRSASEVDRMFPGVPLDTHDVFQYREKAYFCQDRFYWRVSSRSELNQVDQVGYVTYDILQCPED,conversion of pro-MMP-9 into prodomain and active enzyme by stromilysin (HPLC peak areas),Titrating the standard splicing reaction with the 19-mer prevents the conversion of pro-MMP-9 into the prodomain and the active enzyme. Splicing can be inhibited in a dose dependent manner with micromolar 19-mer.

# Source: US20040127421
